{"source": "patent US5607850A", "about": "“Enzyme from microbial source: phthalyl amidase” (Eli Lilly and Company, priority 1995, dated 1997)", "key": {"[1]": {"test": "Stability of phthalyl amidase: effect of ionic strength and pH", "assay_type": "physicochemical", "procedure": "The stability of phthalyl amidase at pH values ranging from 6-9 was determined as described in Example 5 at 30° C. in both 20 and 200 mM potassium phosphate buffer. […] In 200 mM buffer, the enzyme retained at least 80% of its activity for 100 hours irrespective of the pH of the incubating medium."}, "[2]": {"test": "Phthalyl amidase specific activity with chromogenic substrate (II) during purification (Tables 2 and 3)", "assay_type": "biochemical", "procedure": "The assay reaction mixture (1 ml) consisted of 0.3 μmol of the chromogenic substrate (II) and 0.001-0.5 μg of enzyme preparation in 50 mM potassium phosphate buffer, pH 8.0 (buffer A). The enzymatic reaction was conducted at 30° C. for 10 minutes and the appearance of product was monitored at 380 nm (or 430 nm). The amount of substrate hydrolyzed was calculated from a standard curve of the amine product.\nThe phthalyl amidase activity reported in Table 2 was determined using the chromogenic substrate as in Example 3. A typical reaction mixture in a total volume of 1 ml contained 0.2 mg of the chromogenic substrate and an aliquot of phthalyl amidase in buffer A. The enzymatic reaction was conducted at 30° C. for 10-15 min. Formation of the reaction product was monitored with a spectrophotometer at 430 nm (or 380 nm) and quantitated from a standard curve of the product.\nThe concentrated and diafiltered Super-Q mainstream was applied to a hydroxylapatite column (3.2×40 cm) equilibrated in buffer A. After washing the column with this buffer, phthalyl amidase was eluted using a linear gradient of 0-500 mM phosphate buffer, pH 8.0. Fractions were assayed according to the chromogenic substrate method (see Example 3) and the active fractions were pooled (1 L) and concentrated (400 ml)."}, "[3]": {"test": "Optimum reaction temperature of phthalyl amidase", "assay_type": "biochemical", "procedure": "Test reactions were carried out similar to Example 5 except that all incubations were performed in 50 mM potassium phosphate buffer at pH 8.2.Solutions of the substrate were pre-incubated for 5 minutes at temperatures between 2° and 60° C. The enzymatic reaction was initiated by the addition of phthalyl amidase and stopped by the addition of 1 ml methanol. Specific activity of the enzyme was determined by monitoring the hydrolysis of III by HPLC as in Example 5."}, "[4]": {"test": "Optimum salt concentration for phthalyl amidase", "assay_type": "biochemical", "conditions": "for Specific Activity: pH 8.2, 32° C.", "procedure": "Test reactions were carried out similar to Example 6 except that buffer concentrations ranging from 10 to 200 mM at 32° C. were examined. All other conditions and analyses were the same."}, "[5]": {"test": "Isoelectric focusing of phthalyl amidase", "assay_type": "physicochemical", "procedure": "The molecular weight of the phthalyl amidase was determined to be 49,000 by electrospray mass spectrometry. The enzyme is monomeric with an isoelectric point estimated by isoelectric focusing to be pH 5.5."}, "[6]": {"test": "Effect of pH on phthalyl amidase activity", "assay_type": "biochemical", "procedure": "The effect of pH on the reaction rate of the analytical scale purified enzyme was determined using phthalamido carbacephem (III) as substrate. [drawing 5]\nA typical reaction mixture consisted of 1 ml total volume and contained 0.1 mM III, 0.1 μM phthalyl amidase in 50 mM potassium phosphate buffer (pH 5.5-9.0) at 32° C. for 20 minutes. The reactions were stopped by the addition of 1 ml methanol. After removal of precipitate by centrifugation, an aliquot of the supernatant fraction (typically 30 μl) was monitored for the beta-lactam nucleus and phthalic acid by HPLC using a Zorbax C8 column (0.46×15 cm; MacMod Analytical Inc., Chadds Ford, Pa.). The two reaction products were eluted by a mobile phase constructed as continuous mixed gradients from (a) 1% ACN (acetonitrile)/0.2% TFA (trifluoroacetic acid) and (b) 80% ACN/0.2% TFA as follows: 1) 0% (b), 3min; 2) 0-50% (b), 0.5 min; 3) 50-100% (b), 3 min; 4) 100% (b), 2.5 min; 5) 100-1% (b), 0.1 min; and 6) 0% (b), 5 min. At a flow rate of 1.5 ml/min, retention times of the beta-lactam nucleus and phthalic acid, as measured at 254 nm, were 2.3 and 7.2 min, respectively."}, "[7]": {"test": "Temperature stability of phthalyl amidase", "assay_type": "physicochemical", "conditions": "pH 8.2; for enzyme activity retained: 48 hours", "procedure": "The phthalyl amidase enzyme was also tested for stability at varying temperature. The enzyme was incubated at pH 8.2 in the temperature range of 4°-50° C. for 48 hours in 50 and 200 mM phosphate buffer. […] In 200 mM buffer, 80% of the enzyme activity was retained in temperatures up to 35° C. and 30% of the enzyme activity was retained after 48 hours incubation at 40° C."}}}
{"molecule": "phthalyl amidase: specific enzyme which readily removes the phthalyl moiety from phthalyl-containing amides, from Xanthobacter agilis (protein) QAPSVHQHVAFTEEIGDLPDGSSYMIRVPENWNGVLIRDLDLVSGTSNSNAARYETMLKEGFAVAGTARHPLRQWQYDPAHEIENLNHVLDTFEENYGSPERVIQYGCSGGAHVSLAVAEDFSDRVDGSVALAAHTPVWIMNSFLDGWFSLQSLIGEYYVEAGHGPLSDLAITKLPNDGSSNSSGHGMEGDLPAAWRNAFTAANATPEGRARMALAFALGQWSPWLADNTPQPDLDDPEAIADSVYESAMRLAGSPGGEARIMFENAARGQQLSWNDDIDYADFWENSNPAMKSAVQELYDTAGLDLQSDIETVNSQPRIEASQYALDYWNTPGRNVIGDPEVPVLRLHMIGDYQIPYSLVQGYSDLISENNNDDLYRTAFVQSTGHCNFTAAESSAAIEVMMQRLDTGEWPSTEPDDLNAIAEASNTGTEARFMALDGWEIPEYNRTWKPE", "values": [{"measurement": "Optimum ionic strength", "setting": "[1]", "value": "≥ 200", "unit": "mM"}, {"measurement": "ionic strength that enhances pH and temperature stability", "setting": "[1]", "value": "above 20 mM"}, {"measurement": "optimum stability pH", "setting": "[1]", "value": "8.0±0.4", "unit": "pH"}, {"measurement": "pH range of stability", "setting": "[1]", "value": "6-9 pH"}, {"measurement": "enzyme activity lost", "setting": "[1]; 20 mM potassium phosphate, within 2 hours, 30° C., any pH 6-9", "value": "all enzyme activity as lost"}, {"measurement": "enzyme activity retained", "setting": "[1]; 200 mM potassium phosphate, 100 hours, 30° C., pH 6-9", "value": "at least 80%"}, {"measurement": "Spec. Act.", "setting": "[2]; Table 2, Ammonium Sulfate: 67-97% cut", "value": 1.547, "unit": "Units/mg"}, {"measurement": "Spec. Act.", "setting": "[2]; Table 2, Crude Extract", "value": 0.063, "unit": "Units/mg"}, {"measurement": "Spec. Act.", "setting": "[2]; Table 2, Hydroxylapatite", "value": 5.52, "unit": "Units/mg"}, {"measurement": "Spec. Act.", "setting": "[2]; Table 2, Mono P", "value": 7.2, "unit": "Units/mg"}, {"measurement": "Spec. Act.", "setting": "[2]; Table 2, Phenyl-Sepharose", "value": 2.505, "unit": "Units/mg"}, {"measurement": "Spec. Act.", "setting": "[2]; Table 2, Q Sepharose", "value": 1.214, "unit": "Units/mg"}, {"measurement": "Spec. Act.", "setting": "[2]; Table 3 (preparative), Crude Extract", "value": 0.8, "unit": "Units/mg"}, {"measurement": "Spec. Act.", "setting": "[2]; Table 3 (preparative), Hydroxylapatite", "value": 9.0, "unit": "Units/mg"}, {"measurement": "Spec. Act.", "setting": "[2]; Table 3 (preparative), Super-Q", "value": 3.0, "unit": "Units/mg"}, {"measurement": "enzyme activity outside temperature range", "setting": "[3]; below 10° C. and above 50° C., pH 8.2", "value": "Little enzyme activity"}, {"measurement": "temperature of maximum reaction rate", "setting": "[3]; pH 8.2, 50 mM potassium phosphate", "value": 34, "unit": "°C"}, {"measurement": "effect of high salt concentration on specific activity", "setting": "[4]; 10 to 200 mM buffer", "value": "markedly improved the specific activity"}, {"measurement": "Specific Activity", "setting": "[4]; K Phosphate 10 mM", "value": 148, "unit": "μmol/min/μmol enzyme"}, {"measurement": "Specific Activity", "setting": "[4]; K Phosphate 50 mM", "value": 300, "unit": "μmol/min/μmol enzyme"}, {"measurement": "Specific Activity", "setting": "[4]; K Phosphate 100 mM", "value": 350, "unit": "μmol/min/μmol enzyme"}, {"measurement": "Specific Activity", "setting": "[4]; K Phosphate 200 mM", "value": 360, "unit": "μmol/min/μmol enzyme"}, {"measurement": "Specific Activity", "setting": "[4]; NH4 Acetate 10 mM", "value": 25, "unit": "μmol/min/μmol enzyme"}, {"measurement": "Specific Activity", "setting": "[4]; NH4 Acetate 50 mM", "value": 50, "unit": "μmol/min/μmol enzyme"}, {"measurement": "Specific Activity", "setting": "[4]; NH4 Acetate 100 mM", "value": 75, "unit": "μmol/min/μmol enzyme"}, {"measurement": "Specific Activity", "setting": "[4]; NH4 Acetate 200 mM", "value": 100, "unit": "μmol/min/μmol enzyme"}, {"measurement": "Specific Activity", "setting": "[4]; Tris-HCl 10 mM", "value": 73, "unit": "μmol/min/μmol enzyme"}, {"measurement": "Specific Activity", "setting": "[4]; Tris-HCl 50 mM", "value": 230, "unit": "μmol/min/μmol enzyme"}, {"measurement": "Specific Activity", "setting": "[4]; Tris-HCl 100 mM", "value": 275, "unit": "μmol/min/μmol enzyme"}, {"measurement": "Specific Activity", "setting": "[4]; Tris-HCl 200 mM", "value": 300, "unit": "μmol/min/μmol enzyme"}, {"measurement": "isoelectric point", "setting": "[5]", "value": "~5.5", "unit": "pH"}, {"measurement": "Reactive pH range", "setting": "[6]", "value": "5.5 to 9.0", "unit": "pH"}, {"measurement": "optimum pH", "setting": "[6]", "value": "8.0±0.4", "unit": "pH"}, {"measurement": "Optimal pH range for enzyme activity", "setting": "[6]; 32° C., 50 mM potassium phosphate", "value": "≥ 7.8", "unit": "pH"}, {"measurement": "Specific Activity", "setting": "[6]; pH 7.0, 32° C.", "value": 125.4, "unit": "μmol/min/μmol enzyme"}, {"measurement": "Specific Activity", "setting": "[6]; pH 7.2, 32° C.", "value": 130.4, "unit": "μmol/min/μmol enzyme"}, {"measurement": "Specific Activity", "setting": "[6]; pH 7.4, 32° C.", "value": 155.2, "unit": "μmol/min/μmol enzyme"}, {"measurement": "Specific Activity", "setting": "[6]; pH 7.6, 32° C.", "value": 172.5, "unit": "μmol/min/μmol enzyme"}, {"measurement": "Specific Activity", "setting": "[6]; pH 7.8, 32° C.", "value": 184.2, "unit": "μmol/min/μmol enzyme"}, {"measurement": "Specific Activity", "setting": "[6]; pH 8.0, 32° C.", "value": 195.3, "unit": "μmol/min/μmol enzyme"}, {"measurement": "Specific Activity", "setting": "[6]; pH 8.2, 32° C.", "value": 201.2, "unit": "μmol/min/μmol enzyme"}, {"measurement": "Specific Activity", "setting": "[6]; pH 8.4, 32° C.", "value": 208.0, "unit": "μmol/min/μmol enzyme"}, {"measurement": "Specific Activity", "setting": "[6]; pH 8.6, 32° C.", "value": 181.7, "unit": "μmol/min/μmol enzyme"}, {"measurement": "Specific Activity", "setting": "[6]; pH 8.8, 32° C.", "value": 185.1, "unit": "μmol/min/μmol enzyme"}, {"measurement": "Specific Activity", "setting": "[6]; pH 9.0, 32° C.", "value": 33.1, "unit": "μmol/min/μmol enzyme"}, {"measurement": "enzyme activity lost", "setting": "[7]; 50 mM phosphate, above 40° C., within 48 hours", "value": "all enzyme activity was lost"}, {"measurement": "enzyme activity retained", "setting": "[7]; 50 mM phosphate, below 25° C.", "value": 90, "unit": "%"}, {"measurement": "enzyme activity retained", "setting": "[7]; 200 mM phosphate, 40° C.", "value": 30, "unit": "%"}]}
